Experimental findings from the Immune Epitope Database (IEDB) are described below.

In assay [1] the target is HLA-A*02:01. Kind of assay: IEDB peptide-MHC binding, purified MHC/competitive/fluorescence; filed as Kd, often an IC50 or EC50 that approximates it; ≥ and ≤ were set here for values at or beyond the usual limits of such assays. The note with it: source organism: Campylobacter jejuni subsp. jejuni NCTC 11168 = ATCC 700819.
The target of assay [2] is HLA-A*02:03. The description is as above. The note with it: source organism: Campylobacter jejuni subsp. jejuni NCTC 11168 = ATCC 700819.
Assay [3] has as its target HLA-A*02:11. The assay is described as above. The settings on record: source organism: Campylobacter jejuni subsp. jejuni NCTC 11168 = ATCC 700819.
Assay [4] has as its target HLA-A*02:12. Described as above. The note with it: source organism: Campylobacter jejuni subsp. jejuni NCTC 11168 = ATCC 700819.
Assay [5] has as its target HLA-A*02:16. The assay is described as above. The settings on record: source organism: Campylobacter jejuni subsp. jejuni NCTC 11168 = ATCC 700819.
Assay [6] addresses HLA-A*02:19. Described as above. The note with it: source organism: Campylobacter jejuni subsp. jejuni NCTC 11168 = ATCC 700819.
Assay [7] addresses HLA-A*03:01. Described as above. The note with it: source organism: Campylobacter jejuni subsp. jejuni NCTC 11168 = ATCC 700819.
For assay [8], the target named is HLA-A*23:01. Described as above. The settings on record: source organism: Campylobacter jejuni subsp. jejuni NCTC 11168 = ATCC 700819.
Assay [9] deals with HLA-A*24:03. Described as above. The settings on record: source organism: Campylobacter jejuni subsp. jejuni NCTC 11168 = ATCC 700819.
Assay [10] addresses HLA-A*26:01. The assay is described as above. The note with it: source organism: Campylobacter jejuni subsp. jejuni NCTC 11168 = ATCC 700819.
Assay [11] concerns the target HLA-A*29:02. Described as above. The note with it: source organism: Campylobacter jejuni subsp. jejuni NCTC 11168 = ATCC 700819.
In assay [12] the target is HLA-A*68:02. Described as above. The note with it: source organism: Campylobacter jejuni subsp. jejuni NCTC 11168 = ATCC 700819.
For assay [13], the target named is HLA-A*69:01. The assay is described as above. The note with it: source organism: Campylobacter jejuni subsp. jejuni NCTC 11168 = ATCC 700819.
Assay [14] addresses HLA-B*15:01. The description is as above. The settings on record: source organism: Campylobacter jejuni subsp. jejuni NCTC 11168 = ATCC 700819.
The target of assay [15] is HLA-B*18:01. The assay is described as above. The settings on record: source organism: Campylobacter jejuni subsp. jejuni NCTC 11168 = ATCC 700819.
For assay [16], the target named is HLA-B*27:03. The assay is described as above. The note with it: source organism: Campylobacter jejuni subsp. jejuni NCTC 11168 = ATCC 700819.
The target in assay [17] is HLA-B*39:01. The description is as above. The settings on record: source organism: Campylobacter jejuni subsp. jejuni NCTC 11168 = ATCC 700819.
The target in assay [18] is HLA-B*46:01. The description is as above. The note with it: source organism: Campylobacter jejuni subsp. jejuni NCTC 11168 = ATCC 700819.
Assay [19] concerns the target HLA-B*51:01. The assay is described as above. The note with it: source organism: Campylobacter jejuni subsp. jejuni NCTC 11168 = ATCC 700819.
For assay [20], the target named is HLA-B*57:01. The assay is described as above. The settings on record: source organism: Campylobacter jejuni subsp. jejuni NCTC 11168 = ATCC 700819.
The target of assay [21] is HLA-A*03:01. Kind of assay: IEDB peptide-MHC binding, purified MHC/direct/fluorescence; filed as Kd, often an IC50 or EC50 that approximates it; ≥ and ≤ were set here for values at or beyond the usual limits of such assays.
The target of assay [22] is HLA-A*24:03. The description is as above.
The target in assay [23] is HLA-A*26:01. Described as above.
The target of assay [24] is HLA-B*15:01. Described as above.
For assay [25], the target named is HLA-B*18:01. Described as above.
For assay [26], the target named is HLA-B*27:03. The description is as above.
Assay [27] deals with HLA-B*39:01. Described as above. The note with it: source organism: Salmonella enterica subsp. enterica serovar Typhimurium.
Assay [28] concerns the target HLA-B*46:01. The assay is described as above.
In assay [29] the target is HLA-B*51:01. The description is as above.
Assay [30] addresses HLA-B*57:01. Described as above.
In assay [31] the target is HLA-A*02:01. The assay is described as above.
Assay [32] deals with HLA-A*02:03. The description is as above.
Assay [33] has as its target HLA-A*02:11. The description is as above.
In assay [34] the target is HLA-A*02:12. Described as above.
Assay [35] concerns the target HLA-A*02:16. The description is as above.
In assay [36] the target is HLA-A*02:19. Described as above.
The target of assay [37] is HLA-A*68:02. The assay is described as above. The note with it: source organism: Rickettsia sibirica 246.
The target in assay [38] is HLA-A*69:01. The assay is described as above. The note with it: source organism: Rickettsia sibirica 246.
Assay [39] concerns the target HLA-B*15:17. Kind of assay: IEDB peptide-MHC binding, purified MHC/competitive/fluorescence; filed as Kd, often an IC50 or EC50 that approximates it; ≥ and ≤ were set here for values at or beyond the usual limits of such assays. The note with it: source organism: Rickettsia sibirica 246.
[40] abbreviates: source organism: Salmonella enterica subsp. enterica serovar Typhimurium.
Setting [41] is: source organism: Rickettsia sibirica 246.
Setting [42] is: source organism: Encephalitozoon cuniculi GB-M1.

Bounds are passed on as bounds.

The term Kd denotes the equilibrium constant for the complex coming apart. A lower Kd goes with higher affinity. KGMKIQHFK: the Kd in assay [1], in assay [2], in [3], in assay [4], in assay [5] and in [6] was at least 20 µM throughout. For the same sequence, the Kd was 0.0679 µM in assay [7]; at least 20 µM in [8]; at least 20 µM in [9]; at least 20 µM in assay [10]; at least 20 µM in [11]; at least 20 µM in [12]. Besides, the Kd in [13], in [14], in assay [15], in assay [16], in assay [17] and in assay [18] was at least 20 µM throughout. For the same sequence, the Kd in assay [19] and in [20] was at least 20 µM each time.
Regarding LAMLVLHQV, the Kd in [21] (setting [40]), in [22] (setting [40]), in assay [23] (setting [40]), in [24] (setting [40]), in assay [25] (setting [40]) and in [26] (setting [40]) was at least 20 µM throughout. Besides, the Kd is at least 20 µM in assay [27], at least 20 µM in assay [28] (setting [40]), 0.416 µM in assay [29] (setting [40]) and at least 20 µM in [30] (setting [40]).
For the sequence APVESMALF, the Kd in assay [31] (setting [41]), in assay [32] (setting [41]), in [33] (setting [41]), in assay [34] (setting [41]), in assay [35] (setting [41]) and in assay [36] (setting [41]) was at least 20 µM throughout. Further, the Kd in [21] (setting [41]), in assay [37], in [38], in assay [24] (setting [41]), in [25] (setting [41]) and in [26] (setting [41]) was at least 20 µM each time. Also, the Kd in [28] (setting [41]) was at least 20 µM; in assay [29] (setting [41]), at least 20 µM; in assay [30] (setting [41]), at least 20 µM; in [39] it was 15.1 µM.
Turning to MPFDPSELV, the Kd in [31] (setting [42]), in assay [32] (setting [42]), in assay [33] (setting [42]), in assay [34] (setting [42]), in assay [35] (setting [42]) and in assay [36] (setting [42]) was at least 20 µM throughout. In addition, the Kd in assay [21] (setting [42]), in assay [22] (setting [42]), in [23] (setting [42]), in assay [24] (setting [42]), in [25] (setting [42]) and in [26] (setting [42]) was at least 20 µM each time. For the same sequence, the figures for the Kd in assay [28] (setting [42]), in assay [29] (setting [42]) and in assay [30] (setting [42]) were at least 20 µM, 0.074 µM and at least 20 µM, respectively.
